{
  "source": "patent US20150361183A1",
  "about": "(IMPERIAL INNOVATIONS, published 2015)",
  "binders": {"B1": {"name": "CFHR234 (recombinant CFHR2 domains 3-4) (other)", "chain": "EKCGPPPPIDNGDITSFLLSVYAPGSSVEYQCQNLYQLEGNNQITCRNGQWSEPPKCLDPCVISQEIMEKYNIKLKWTNQQKLYSRTGDIVEFVCKSGYHPTKSHSFRAMCQNGKLVYPSCEEK"}, "B2": {"name": "CFHR2 (complement factor H-related protein 2), native in serum (other)", "chain": "EAMFCDFPKINHGILYDEEKYKPFSQVPTGEVFYYSCEYNFVSPSKSFWTRITCAEEGWSPTPKCLRLCFFPFVENGHSESSGQTHLEGDTVQIICNTGYRLQNNENNISCVERGWSTPPKCRSTISAEKCGPPPPIDNGDITSFLLSVYAPGSSVEYQCQNLYQLEGNNQITCRNGQWSEPPKCLDPCVISQEIMEKYNIKLKWTNQQKLYSRTGDIVEFVCKSGYHPTKSHSFRAMCQNGKLVYPSCEEK", "notes": "Native serum protein"}, "B3": {"name": "Complement factor H (CFH) (other, UniProt P08603 19-1231, looked up)", "chain": "EDCNELPPRRNTEILTGSWSDQTYPEGTQAIYKCRPGYRSLGNVIMVCRKGEWVALNPLRKCQKRPCGHPGDTPFGTFTLTGGNVFEYGVKAVYTCNEGYQLLGEINYRECDTDGWTNDIPICEVVKCLPVTAPENGKIVSSAMEPDREYHFGQAVRFVCNSGYKIEGDEEMHCSDDGFWSKEKPKCVEISCKSPDVINGSPISQKIIYKENERFQYKCNMGYEYSERGDAVCTESGWRPLPSCEEKSCDNPYIPNGDYSPLRIKHRTGDEITYQCRNGFYPATRGNTAKCTSTGWIPAPRCTLKPCDYPDIKHGGLYHENMRRPYFPVAVGKYYSYYCDEHFETPSGSYWDHIHCTQDGWSPAVPCLRKCYFPYLENGYNQNYGRKFVQGKSIDVACHPGYALPKAQTTVTCMENGWSPTPRCIRVKTCSKSSIDIENGFISESQYTYALKEKAKYQCKLGYVTADGETSGSITCGKDGWSAQPTCIKSCDIPVFMNARTKNDFTWFKLNDTLDYECHDGYESNTGSTTGSIVCGYNGWSDLPICYERECELPKIDVHLVPDRKKDQYKVGEVLKFSCKPGFTIVGPNSVQCYHFGLSPDLPICKEQVQSCGPPPELLNGNVKEKTKEEYGHSEVVEYYCNPRFLMKGPNKIQCVDGEWTTLPVCIVEESTCGDIPELEHGWAQLSSPPYYYGDSVEFNCSESFTMIGHRSITCIHGVWTQLPQCVAIDKLKKCKSSNLIILEEHLKNKKEFDHNSNIRYRCRGKEGWIHTVCINGRWDPEVNCSMAQIQLCPPPPQIPNSHNMTTTLNYRDGEKVSVLCQENYLIQEGEEITCKDGRWQSIPLCVEKIPCSQPPQIEHGTINSSRSSQESYAHGTKLSYTCEGGFRISEENETTCYMGKWSSPPQCEGLPCKSPPEISHGVVAHMSDSYQYGEEVTYKCFEGFGIDGPAIAKCLGEKWSHPPSCIKTDCLSLPSFENAIPMGEKKDVYKAGEQVTYTCATYYKMDGASNVTCINSRWTGRPTCRDTSCVNPPTVQNAYIVSRQMSKYPSGERVRYQCRSPYEMFGDEEVMCLNGNWTEPPQCKDSTGKCGPPPPIDNGDITSFPLSVYAPASSVEYQCQNLYQLEGNKRITCRNGQWSEPPKCLHPCVISREIMENYNIALRWTAKQKLYSRTGESVEFVCKRGYRLSSRSHTLRTTCWDGKLEYPTCAKR"}, "B4": {"name": "CFHR5 (complement factor H-related protein 5), wild type (other)", "chain": "EGTLCDFPKIHHGFLYDEEDYNPFSQVPTGEVFYYSCEYNFVSPSKSFWTRITCTEEGWSPTPKCLRMCSFPFVKNGHSESSGLIHLEGDTVQIICNTGYSLQNNEKNISCVERGWSTPPICSFTKGECHVPILEANVDAQPKKESYKVGDVLKFSCRKNLIRVGSDSVQCYQFGWSPNFPTCKGQVRSCGPPPQLSNGEVKEIRKEEYGHNEVVEYDCNPNFIINGPKKIQCVDGEWTTLPTCVEQVKTCGYIPELEYGYVQPSVPPYQHGVSVEVNCRNEYAMIGNNMITCINGIWTELPMCVATHQLKRCKIAGVNIKTLLKLSGKEFNHNSRIRYRCSDIFRYRHSVCINGKWNPEVDCTEKREQFCPPPPQIPNAQNMTTTVNYQDGEKVAVLCKENYLLPEAKEIVCKDGRWQSLPRCVESTAYCGPPPSINNGDTTSFPLSVYPPGSTVTYRCQSFYKLQGSVTVTCRNKQWSEPPRCLDPCVVSEENMNKNNIQLKWRNDGKLYAKTGDAVEFQCKFPHKAMISSPPFRAICQEGKFEYPICE", "notes": "Recombinant full-length protein from HEK293 cells, a dimer by size exclusion; The same id is used for native serum CFHR5 in the heterodimer experiments; also called recombinant CFHR5; wild-type CFHR5"}, "B5": {"name": "CFHR1 (complement factor H-related protein 1), purified from serum (other)", "chain": "EATFCDFPKINHGILYDEEKYKPFSQVPTGEVFYYSCEYNFVSPSKSFWTRITCTEEGWSPTPKCLRLCFFPFVENGHSESSGQTHLEGDTVQIICNTGYRLQNNENNISCVERGWSTPPKCRSTDTSCVNPPTVQNAHILSRQMSKYPSGERVRYECRSPYEMFGDEEVMCLNGNWTEPPQCKDSTGKCGPPPPIDNGDITSFPLSVYAPASSVEYQCQNLYQLEGNKRITCRNGQWSEPPKCLHPCVISREIMENYNIALRWTAKQKLYLRTGESAEFVCKRGYRLSSRSHTLRTTCWDGKLEYPTCAKR"}, "B6": {"name": "CFHR1345 (recombinant CFHR1 domains 3-5) (other)", "chain": "TSCVNPPTVQNAHILSRQMSKYPSGERVRYECRSPYEMFGDEEVMCLNGNWTEPPQCKDSTGKCGPPPPIDNGDITSFPLSVYAPASSVEYQCQNLYQLEGNKRITCRNGQWSEPPKCLHPCVISREIMENYNIALRWTAKQKLYLRTGESAEFVCKRGYRLSSRSHTLRTTCWDGKLEYPTCAKR"}},
  "key": {"C3b [1]": {"biological_target": "T1, C3b (UniProt P01024 749-1663; P01024 23-667)", "T1 sequence (P01024 749-1663 limits assumed, chain 1 of 2)": "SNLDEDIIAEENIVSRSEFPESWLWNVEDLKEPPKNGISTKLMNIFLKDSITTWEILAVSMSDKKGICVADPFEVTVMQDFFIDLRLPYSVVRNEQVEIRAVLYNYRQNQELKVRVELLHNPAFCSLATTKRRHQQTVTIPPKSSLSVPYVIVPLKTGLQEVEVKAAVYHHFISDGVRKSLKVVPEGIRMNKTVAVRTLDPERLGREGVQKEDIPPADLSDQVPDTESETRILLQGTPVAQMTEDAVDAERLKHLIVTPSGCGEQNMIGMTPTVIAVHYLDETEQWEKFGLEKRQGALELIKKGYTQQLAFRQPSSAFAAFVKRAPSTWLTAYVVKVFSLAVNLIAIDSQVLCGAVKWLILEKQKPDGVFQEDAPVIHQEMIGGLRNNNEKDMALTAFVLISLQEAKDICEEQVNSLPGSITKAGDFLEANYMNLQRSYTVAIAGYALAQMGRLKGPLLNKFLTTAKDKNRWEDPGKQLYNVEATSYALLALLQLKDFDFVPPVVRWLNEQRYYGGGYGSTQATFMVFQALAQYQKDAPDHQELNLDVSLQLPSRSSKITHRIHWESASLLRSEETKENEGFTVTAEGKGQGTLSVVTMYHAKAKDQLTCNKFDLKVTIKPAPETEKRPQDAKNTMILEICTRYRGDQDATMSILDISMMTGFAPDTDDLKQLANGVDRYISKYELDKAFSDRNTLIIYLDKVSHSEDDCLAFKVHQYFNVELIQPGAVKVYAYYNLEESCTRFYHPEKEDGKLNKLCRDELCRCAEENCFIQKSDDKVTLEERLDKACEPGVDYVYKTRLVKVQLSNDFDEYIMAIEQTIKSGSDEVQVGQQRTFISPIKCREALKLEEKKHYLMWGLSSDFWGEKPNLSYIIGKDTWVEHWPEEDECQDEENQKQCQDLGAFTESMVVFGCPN", "T1 sequence (P01024 23-667 limits assumed, chain 2 of 2)": "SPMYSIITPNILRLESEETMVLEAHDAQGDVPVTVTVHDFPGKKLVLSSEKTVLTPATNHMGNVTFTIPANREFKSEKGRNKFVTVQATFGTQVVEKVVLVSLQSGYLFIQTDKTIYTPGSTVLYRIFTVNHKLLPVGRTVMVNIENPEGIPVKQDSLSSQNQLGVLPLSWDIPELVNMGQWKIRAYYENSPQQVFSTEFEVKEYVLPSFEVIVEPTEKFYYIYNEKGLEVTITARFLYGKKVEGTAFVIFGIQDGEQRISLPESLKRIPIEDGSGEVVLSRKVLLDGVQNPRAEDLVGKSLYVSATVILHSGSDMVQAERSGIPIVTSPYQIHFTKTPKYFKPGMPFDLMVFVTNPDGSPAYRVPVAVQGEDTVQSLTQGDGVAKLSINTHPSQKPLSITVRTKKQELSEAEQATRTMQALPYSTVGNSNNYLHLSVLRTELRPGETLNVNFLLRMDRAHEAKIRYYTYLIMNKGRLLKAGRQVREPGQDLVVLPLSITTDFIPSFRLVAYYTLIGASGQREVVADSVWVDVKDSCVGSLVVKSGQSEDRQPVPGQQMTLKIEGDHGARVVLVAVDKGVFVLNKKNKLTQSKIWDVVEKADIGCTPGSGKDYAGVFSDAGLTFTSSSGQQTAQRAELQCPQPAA", "assay": "cell-based or functional assay"}, "[2]": {"biological_target": "B5", "assay": "serum immunoprecipitation with anti-CFHR2, western blot with MBC125", "from_the_text": "Serum was immunoprecipitated using a specific anti-CFHR2 antibody (MBC22) and western blot analysis of the immunoprecipitated material with anti-CFHR1/2/5 antibody (MBC125) performed. […] Lane 2 and 4 represent control sera in which no anti-CFHR2 antibody was used. The detection of CFHR2-CFHR5 heterodimers was not possible due to non-specific bands in the CFHR5 region. […] Serum was immunoprecipitated using an anti-CFHR5 antibody and western blot analysis of the immunoprecipitated material with anti-CFHR1/2/5 antibody performed. […] Lane 2 and 4 represent control sera in which no anti-CFHR5 antibody was used. The detection of CFHR2-CFHR5 heterodimers was not possible due to non-specific bands in the CFHR2 region. FIG. 2(d) ELISA assay to detect CFHR2-CFHR5 heterodimers in vivo. Using an anti-CFHR5 capture antibody and an anti-CFHR2 detection antibody, positive signal was demonstrable in two individuals homozygous for the ΔCFHR3-1 deletion polymorphism. A much weaker signal was detectable in individuals without this deletion.\nDetection of heterodimers CFHR1-CFHR2 and CFHR1-CFHR5 were identified by immunoprecipitation. […]"}, "iC3b": {"biological_target": "T2, iC3b (UniProt P01024 23-667; P01024 749-1303; P01024 1321-1663)", "T2 construct": "also called thioester-coupled iC3b", "T2 sequence (P01024 23-667, chain 1 of 3)": "as the sequence (P01024 23-667 limits assumed, chain 2 of 2) above", "T2 sequence (P01024 749-1303, chain 2 of 3)": "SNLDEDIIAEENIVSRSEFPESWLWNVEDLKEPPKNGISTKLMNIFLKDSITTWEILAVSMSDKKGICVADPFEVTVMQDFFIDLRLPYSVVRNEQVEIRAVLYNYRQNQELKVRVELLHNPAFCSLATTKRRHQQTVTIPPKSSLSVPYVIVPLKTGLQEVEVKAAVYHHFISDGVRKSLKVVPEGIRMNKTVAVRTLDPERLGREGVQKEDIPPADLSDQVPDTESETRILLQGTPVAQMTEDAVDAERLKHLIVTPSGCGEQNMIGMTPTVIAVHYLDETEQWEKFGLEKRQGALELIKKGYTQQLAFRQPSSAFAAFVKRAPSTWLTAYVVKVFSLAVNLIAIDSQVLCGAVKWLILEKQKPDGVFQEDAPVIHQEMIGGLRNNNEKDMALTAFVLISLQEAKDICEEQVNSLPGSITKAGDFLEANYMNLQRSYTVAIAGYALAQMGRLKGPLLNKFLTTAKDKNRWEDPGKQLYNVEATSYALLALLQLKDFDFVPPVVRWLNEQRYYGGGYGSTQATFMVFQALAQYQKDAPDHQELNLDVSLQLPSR", "T2 sequence (P01024 1321-1663, chain 3 of 3)": "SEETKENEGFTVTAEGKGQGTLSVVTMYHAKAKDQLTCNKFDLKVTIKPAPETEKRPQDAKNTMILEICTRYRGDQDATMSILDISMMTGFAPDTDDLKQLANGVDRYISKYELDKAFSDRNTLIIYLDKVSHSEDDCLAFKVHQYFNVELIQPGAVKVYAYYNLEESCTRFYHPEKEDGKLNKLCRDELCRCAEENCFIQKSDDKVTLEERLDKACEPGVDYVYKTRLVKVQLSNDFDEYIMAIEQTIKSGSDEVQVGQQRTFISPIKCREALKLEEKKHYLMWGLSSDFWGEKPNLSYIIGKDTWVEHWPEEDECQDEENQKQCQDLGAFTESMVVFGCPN", "assay": "SPR steady state, iC3b on chip; reference CFHR5"}, "C3b [3]": {"biological_target": "T1, C3b", "assay": "SPR steady state, thioester-coupled (clustered) C3b against amine-coupled C3b", "protocol": "FIG. 9(a) Binding of CFHR5 and CFH to low levels of C3b coupled through amine groups (no clustering of C3b). CFH (from 4 μM) or CFHR5 (from 6.6 μM) were flowed across immobilized C3b (400 RU) at different concentrations. Affinity was calculated by steady state analysis. Analysis assumes a 1:1 binding interaction and for CFHR5 calculations used molarity of binding sites. FIG. 9(b) Binding to C3b coupled through the thiolester. C3b (150RU) was amine-coupled to a CM5 Biacore chip and used as a nidus for convertase formation. Further C3b was deposited on the chip surface by flowing fB and fD to form C3bBb followed by C3 as convertase substrate. […] CFH (from 4 μM) and CFHR5 (from 1.35 μM) were flowed across the surface and binding was analysed at steady state. Binding of CFH was very heterogeneous, likely due to crosslinking between multiple C3b-binding sites on fH and clusters of deposited C3b molecules. Affinity could not be calculated under these conditions. […] Data were calculated using the following values: CFH, mass 155 kDa, extinction coefficient 1.95 cm-1 (mg/mL)-1; CFHR5, mass 65 kDa, extinction coefficient 1.55 cm-1 (mg/mL)-1;\nAll data in FIGS. 9-11 were gathered using a Biacore T100 (GE Healthcare). […] For kinetic studies, samples were injected using the KINJECT command, in HBS/P (10 mM HEPES pH7.4, 150 mM NaCl, 0.05% surfactant-P20) flowed at 30 μl/min and analysed at 25° C. […]"}, "[4]": {"biological_target": "the molecule itself", "assay": "size exclusion chromatography", "from_the_text": "FIG. 3(a) Generation of a CFHR5 protein lacking critical amino acids within the dimerisation motif. Monomeric CFHR5 (CFHR5^{dimer mutant}) was generated by mutating the three stabilizing amino acids (Tyr34Ser, Ser36 Tyr, Tyr39Glu) within the dimerisation motif to the corresponding amino acids within CFH. FIG. 3(b) Analysis of recombinant CFHR5 and CFHR5^{dimer mutant} using SDS PAGE gel electrophoresis. Both the wild type and dimer mutants were purified to single homogenous species as visualized by denaturing electrophoresis. FIG. 3(c) Analysis of recombinant CFHR5 and CFHR5^{dimer mutant} using size exclusion chromatography. Size exclusion chromatography was performed on a Superdex200 10/30 column (GE Healthcare) equilibrated in 50 mM Tris.HCl, pH 7.5, 150 mM NaCl at 0.4 ml/min. The column was followed in-line by an Optilab-Rex refractive index monitor (Wyatt Technologies). The CFHR5 dimer elutes early from the column (blue trace) whilst the monomeric CFHR5^{dimer mutant} protein elutes at a larger column volume (red trace). FIG. 3(d) Interaction of CFHR5 and CFHR5^{dimer mutant} with renal-bound mouse C3 in vivo."}},
  "data": [
    {"binder": "B1", "values": [
      {"measurement": "IC50, dose-dependent increase of lysis in the CFH-dependent alternative pathway haemolytic assay (guinea-pig erythrocytes, 20% normal human serum plus CFH)", "setting": "C3b [1]", "result": 4700, "unit": "nM"}
    ]},
    {"binder": "B2", "values": [
      {"measurement": "binding result", "setting": "[2]", "result": "binds"}
    ]},
    {"binder": "B3", "values": [
      {"measurement": "fold weaker binding than CFHR5", "setting": "iC3b", "result": 10, "unit": "fold"}
    ]},
    {"binder": "B4", "values": [
      {"measurement": "fold tighter binding to thioester-coupled C3b than to amine-coupled C3b", "setting": "C3b [3]", "result": 10, "unit": "fold"},
      {"measurement": "IC50, dose-dependent increase of lysis in the CFH-dependent alternative pathway haemolytic assay (guinea-pig erythrocytes, 20% normal human serum plus CFH)", "setting": "C3b [1]", "result": 150, "unit": "nM"},
      {"measurement": "binding result", "setting": "[4]", "result": "binds"}
    ]},
    {"binder": "B5", "values": [
      {"measurement": "IC50, dose-dependent increase of lysis in the CFH-dependent alternative pathway haemolytic assay (guinea-pig erythrocytes, 20% normal human serum plus CFH)", "setting": "C3b [1]", "result": 700, "unit": "nM"}
    ]},
    {"binder": "B6", "values": [
      {"measurement": "IC50, dose-dependent increase of lysis in the CFH-dependent alternative pathway haemolytic assay (guinea-pig erythrocytes, 20% normal human serum plus CFH)", "setting": "C3b [1]", "result": 3600, "unit": "nM"}
    ]}
  ]
}
